Measured values reported in publication PMC2912425 (Biochemistry, 2010).

Legend:
6xHis Grsp1_(2-400) = target: T1, 6xHis Grsp1_(2-400) (mouse, UniProt Q920B0-2 2-400); assay: SEC
T1 sequence (looked up): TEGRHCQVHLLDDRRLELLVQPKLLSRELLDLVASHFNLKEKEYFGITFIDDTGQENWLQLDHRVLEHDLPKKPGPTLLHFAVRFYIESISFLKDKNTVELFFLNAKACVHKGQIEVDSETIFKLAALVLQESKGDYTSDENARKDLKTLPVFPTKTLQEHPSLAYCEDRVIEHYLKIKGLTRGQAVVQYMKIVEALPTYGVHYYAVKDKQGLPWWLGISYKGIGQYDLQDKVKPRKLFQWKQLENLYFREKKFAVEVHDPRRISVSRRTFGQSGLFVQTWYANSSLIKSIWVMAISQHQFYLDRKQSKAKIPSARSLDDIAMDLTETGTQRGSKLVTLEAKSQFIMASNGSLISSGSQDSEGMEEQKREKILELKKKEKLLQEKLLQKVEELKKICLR

SEC = target: the molecule itself; assay: SEC
AUC = target: the molecule itself; assay: AUC

B1: 6xHis Cytohesin-1_(2-244) (domain or fragment, human, UniProt Q15438 2-244, looked up)
chain: EEDDSYVPSDLTAEERQELENIRRRKQELLADIQRLKDEIAEVANEIENLGSTEERKNMQRNKQVAMGRKKFNMDPKKGIQFLIENDLLKNTCEDIAQFLYKGEGLNKTAIGDYLGERDEFNIQVLHAFVELHEFTDLNLVQALRQFLWSFRLPGEAQKIDRMMEAFAQRYCQCNNGVFQSTDTCYVLSFAIIMLNTSLHNPNVKDKPTVERFIAMNRGINDGGDLPEELLRNLYESIKNEPF
Question: Which “percent of Grsp1_(2-400) bound” value (6xHis Grsp1_(2-400)) does the source give for B1 here?
Answer: > 90%

B2: 6xHis Grp1_(13-248) (domain or fragment, mouse, UniProt O08967 13-248, looked up)
chain: PEDLSLEEREELLDIRRRKKELIDDIERLKYEIAEVMTEIDNLTSVEESKTTQRNKQIAMGRKKFNMDPKKGIQFLIENDLLQSSPEDVAQFLYKGEGLNKTVIGDYLGERDDFNIKVLQAFVELHEFADLNLVQALRQFLWSFRLPGEAQKIDRMMEAFASRYCLCNPGVFQSTDTCYVLSFAIIMLNTSLHNHNVRDKPTAERFITMNRGINEGGDLPEELLRNLYESIKNEPF
Question: Which “percent of Grsp1_(2-400) bound” value (6xHis Grsp1_(2-400)) does the source give for B2 here?
Answer: > 90%

Question: What about the “stoichiometry N” value (SEC) of the same binder?
Answer: 2

B3: 6xHis ARNO_(2-252) (domain or fragment, human, UniProt Q99418 2-252, looked up)
chain: EDGVYEPPDLTPEERMELENIRRRKQELLVEIQRLREELSEAMSEVEGLEANEGSKTLQRNRKMAMGRKKFNMDPKKGIQFLVENELLQNTPEEIARFLYKGEGLNKTAIGDYLGEREELNLAVLHAFVDLHEFTDLNLVQALRQFLWSFRLPGEAQKIDRMMEAFAQRYCLCNPGVFQSTDTCYVLSFAVIMLNTSLHNPNVRDKPGLERFVAMNRGINEGGDLPEELLRNLYDSIRNEPFKIPEDDGND
Question: With B3 as the binder, how does the “stoichiometry N” value (AUC) read?
Answer: 2
